Series [1] deals with T1, Insulin receptor (extracellular domain) (Homo sapiens?) (UniProt P06213+P06213). In words: FP. Conditions: 6 Nap-dU stated (n positions) [n positions 3,4,10,14,16,20,24 = modified dU]; filter binding assay in fact (see method p97-p99); 200 mM HEPES, 510 mM NaCl, 25 mM KCl, 25 mM MgCl2, 37 C.
Series [2] has as its target Insulin receptor, endogenous on 3T3-L1 adipocytes (UniProt P15208+P15208). In words: cell_activity. Conditions: 6 Nap-dU (n positions) [n positions 8,10,11,21,23,27 = modified dU]; 2-deoxyglucose uptake, 4 h treatment.
Series [3] deals with T1, Insulin receptor (extracellular domain). Kind of series: filter. As to conditions: 200 mM HEPES, 510 mM NaCl, 25 mM KCl, 25 mM MgCl2, 37 C.

Insulin receptor, endogenous on 3T3-L1 adipocytes, sequence (P15208 28-748, chain 1 of 2): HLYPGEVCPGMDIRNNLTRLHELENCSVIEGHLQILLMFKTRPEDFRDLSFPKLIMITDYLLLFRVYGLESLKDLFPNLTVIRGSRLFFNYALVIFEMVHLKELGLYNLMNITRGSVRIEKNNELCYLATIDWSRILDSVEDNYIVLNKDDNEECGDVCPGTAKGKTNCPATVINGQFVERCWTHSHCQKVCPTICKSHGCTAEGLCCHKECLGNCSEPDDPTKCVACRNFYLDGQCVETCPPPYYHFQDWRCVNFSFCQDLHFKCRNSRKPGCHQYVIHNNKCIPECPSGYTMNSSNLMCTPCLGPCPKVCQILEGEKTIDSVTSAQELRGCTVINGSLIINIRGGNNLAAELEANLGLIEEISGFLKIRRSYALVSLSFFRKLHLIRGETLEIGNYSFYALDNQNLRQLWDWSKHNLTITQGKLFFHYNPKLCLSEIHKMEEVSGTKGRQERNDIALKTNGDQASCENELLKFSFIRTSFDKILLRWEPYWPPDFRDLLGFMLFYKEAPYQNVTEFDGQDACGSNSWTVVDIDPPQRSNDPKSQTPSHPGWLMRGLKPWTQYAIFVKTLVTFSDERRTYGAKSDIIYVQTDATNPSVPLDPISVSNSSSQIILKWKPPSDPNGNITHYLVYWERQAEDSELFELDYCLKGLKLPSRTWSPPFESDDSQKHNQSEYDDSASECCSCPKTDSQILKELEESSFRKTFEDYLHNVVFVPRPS
Insulin receptor, endogenous on 3T3-L1 adipocytes, sequence (P15208 753-1372, chain 2 of 2): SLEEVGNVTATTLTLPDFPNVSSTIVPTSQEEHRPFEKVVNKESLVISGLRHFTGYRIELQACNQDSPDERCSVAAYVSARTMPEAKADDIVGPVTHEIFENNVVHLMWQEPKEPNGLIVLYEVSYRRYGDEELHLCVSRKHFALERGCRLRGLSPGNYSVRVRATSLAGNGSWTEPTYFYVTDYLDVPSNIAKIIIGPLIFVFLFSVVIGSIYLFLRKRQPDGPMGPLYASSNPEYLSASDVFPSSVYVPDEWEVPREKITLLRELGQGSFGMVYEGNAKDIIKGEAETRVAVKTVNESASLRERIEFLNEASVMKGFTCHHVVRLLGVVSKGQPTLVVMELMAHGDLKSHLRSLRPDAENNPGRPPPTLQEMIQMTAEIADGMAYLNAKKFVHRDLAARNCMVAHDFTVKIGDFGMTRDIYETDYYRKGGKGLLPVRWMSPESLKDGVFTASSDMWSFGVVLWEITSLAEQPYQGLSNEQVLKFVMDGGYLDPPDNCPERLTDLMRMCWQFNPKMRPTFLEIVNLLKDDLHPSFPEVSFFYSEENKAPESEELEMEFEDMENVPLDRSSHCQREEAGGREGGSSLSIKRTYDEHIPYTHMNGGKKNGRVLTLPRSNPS

As a reminder, the Kd is the equilibrium constant for the complex coming apart. CATTACGCATGAGTCTAGATCCGTCAG [IR-A62]: in series [1], the Kd is 2.4 nM.
By EC50 is commonly meant the midpoint of the concentration-response curve. Low readings indicate higher potency in that assay, high ones lower potency in that assay. Sequence “CGCCTGGTGTTAAGACAACCTCTAGGTCAGGCG [IR-A48]” returned a concentration giving a half-maximal response (EC50) in series [2] of 66.2 nM. The Kd in series [3] (6 Nap-dU (n positions) [n positions 8,10,11,21,23,27 = modified dU]) was found to be 3.5 nM.
As for “TATGAGTGACCGTCCGCCTGGTGTTAAGACAACCTCTAGGTCAGGCGCAGTGACGGGTAGCAGCCACACCACCAGCCAAA [IR-A48F]”, the Kd in series [3] (8 Nap-dU in the variable region (n positions) [n positions 22,24,25,35,37,41,51,58 = modified dU]) was found to be 6.9 nM. In other words, the single-digit nanomolar range.
